Data reported in publication PMC7987339.

Target: Hfq (Escherichia coli) (UniProt P0A6X3)
Assay: competition
Details: 10 nM (so in the source) Tris-HCl pH 8.0, 1 mM DTT, 1 mM MgCl2, 20 mM KCl, 10 mM Na phosphate pH 8.0, 12.5 ug/mL yeast tRNA; 15 min at 37 C; native 5% PAGE in 1X TBE …

Sequence of Hfq (Escherichia coli) (P0A6X3 whole entry): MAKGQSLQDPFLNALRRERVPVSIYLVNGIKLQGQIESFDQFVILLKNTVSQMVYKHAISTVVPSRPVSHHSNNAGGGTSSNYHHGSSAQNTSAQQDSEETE

“GGACACCGUCGCUUAAAGUGACGGCAUAAUAAUAAAAAAAUGAAAUUCCUCUUUGACGGGCCAAUAGCGAUAUUGGCCAUUUUUUU [ChiX sRNA]” was tested. Which binding did it give?
Its binding is “binds”.
